Experimental data as given in the DeepSol protein solubility set.

Assay: soluble on expression in E. coli; label from the status in PepcDB or PDB records

Q: Which “soluble on expression in E. coli” value does the source give for “MECAEKVEAEIPGQAGRRAGKPSRTYYLEVYGCSLSEFDALIMASRLEEAGYRRVARPEDADVILVNTCAVRLDTEQRIAERLEKLRLQLPDRKYVVAGCLVKARPGLVARLVPEASLLAPQAVERVLDAVDALESGRRLVVLDGRRDTRSMPQLPITDAVVTVMIQEGCLGDCSFCITKVARRQVRSYSPRVIVERVREAVEKGAREIRLTGTDVAVYGVDLPGKPNLADLVAAILEKVEGDYRIRVGMMTPDQVEPYLDSLLDVYRDERVYKYFHLPVQSGDDEVLKIMKRNYTVSEYKAIHRRIKSRFPDAMIATDIIVGHPGETWEAFWNTVRLVEELRFEKVHLAQYSLRPHTEAASMEQVPDSVKKERSRILGKIVAEIGLEINGSYVGRRVRALVTERSWREGSMTGRLDNYTPIILPYEERAMGRWVYAEVEEATFFDLRSSKFEPAP” here?
A: soluble

Q: Which “soluble on expression in E. coli” value does the source give for “MEDVNDLYTMALGEFYAPAPSTSSIKKPAKVPEDQPSTSSAPPTTALFRQLLIGSRSQIERLKKENEELKTKLKHATSSGGVVICPNCTHHFKDRQCPMRPRAMKKMRARNCVELEFGNLEDLEMWLYLNQLETNNDGMPTVMNVKKATNCPEKSLKESGSLLPELVEKKREEKRQQEDQKAVVLEKRKPVTQKVQDHLKRRSKSPIGRGKDQSDKDIISNKKRKLNRQSKEEIDERSKIAKKAPISQRVQFPRMPAPQAPDAVASKVREQKPVDITPHPRPSASRNSESQKPVASKIQEKKTEVRTKSSPTNPIVNSKQPSQKKPADLTPHPKRPPITPETLPSRNSEIQKPAASKIQEKKTEVIARSQKSEASTKIAQKPSPTNPTVNFKQPSQKPADLTPKPITLASKSPITRSSEVSTEPSTKPKRAPIVWDDKPKDSTAKELPKELPKAKSHFEFKVKPIEKKDASPPKTTSTSSASPPNPDPAMKQKYKFVPTSKKQKLTETKNKDQKSTINESPVECQNSGQNEASNPTKLKDQELNKHVVPKNPEAIETPDERQESVQKSNEASATSSTKPSDPVETPSDEVDPQETQWKVYSVKQSRPVLDHIYKFALARQSLKRHWNDKMIVLNGDVPQEKVEESKPLSIAESLKRIGVSVEGIAVLQKQLKASAPEPPVLSTTVDDEDALGEFFPDLAKRKTSEIRPVSAESLWSVTDREEEELKILVREDSVVPPSGDCLMDVEAYEITEDLESQTYEASQSDWKEFCLEDVDDDVDETLRERKLSEMEKSAENLDENMDWIENLEELGNDDEQEEEEEEDQEQEQEQVAPSRSISVPLEMKNDFVLSDEDDPVSPVTSTPRKEDFNDDLSGCLEEDEEDTENLLPQAKDDSFIDELDWNYGTDYEEEEVEEAEVVVEEKDNSGSDHDATLEDGEISENDDGEDEKKEEEPKKPIRERTKFMITEDQLGPKTDEEEDEPPEIHRAPPRKRKINYNRQKGSEDNRHRNYRKRDTRPATYLSLLKRRNS” here?
A: not soluble

Q: For “MEDYANISKGKEKFFPHCFYGRCCARRMLCDANVFPYALPVEANSLKEQAPCLKDEECDLFPDFLGTCVHHQNVTNILENRRFKYFPTNNNVKPKGYGMCCYSKKSSICSTGGTPFEVELSDGPCSNHIDCNPDELPFKWNAYCSQNAKSNMCCRDTLVDSLCPDGFTPYRTQQKCEGYHPLSKSSGKCPKSNGMCHRGHCCPRLTIDEARKATPYHLNYVTDTQCDPTEPLDFVYRWAFCDEIEEKIVVMGDRNADGTELNWQQSRCTINR”, which “soluble on expression in E. coli” value is on record?
A: not soluble

Q: For “MEEGYRLKFIFIGNQNNNIKNKNFSNPHNILFDSKKDIILTQDLCEEFLNLNINKQDHAIELLKKELSPLLFEDSLSYLKEEFINEKLEFNISNLASRYTANNDVDTINNKIIEGISITNNFKYTNISYLKELKGYIENDILDKMKSKYAKNIYLNFKKIFSNLEQSVNNYLELEEEFEEKKKYLSEIYELIDEINIDPYIFLTEHNECNIYKISENEKLELQTYMSKIEKVLLKYQTYLKETCKECLFYPYLLVQGEAGIGKSHLLAHLSKKLRDENHIIYLFLGQFFTKNEDPWHQILNDLEVTNSVDNFLRSISNKAKETKKRAFIIIDALNEGEGKRLWGNYFQSFINHIKKYSNIALIFSIRTPFEDVILPKNAIQDNNIVVFQHEGFSKEENYNPIVSFCDFYGLELPKLPILNPEFNNPLFLKLMCEYCVNKFKEFDQTISVAELFTNVLKTVNINLSKEDKFDFDKNINVVQKVIKGLVELMNDSEFNQLNYEESYTVVNNIAKEYVQKSNRFLEALIDENILIKNTGYKGEMIIYFSYERMGDYFLSEYLLEKYRNVDKRDLVTKLQSDEKVTRYFQKEDDLSYNRGLINELFIKLANEFNIELFEVFPQFKNNYNMIYSFINSLVWRKDGSISKHTKCYISDNVIPYDAFRNNFLDVLLIKMPQKNHPLNIWALHKLLKQCNLGKRDFLWTQYISINNEKVFEIINWLFSNYKKLDEETAEKYMIFLTWIFSATNNKLRDLGTKSLVKLFKTFPTKIIGLLKLFENNNDPYIVERLYASVLGATLRIDICEIHIEIANYIYEEIFDKEMVYPHILMRDYARQTIEYISLSKDISNINLEKIRPPYKSNWYKKEYSNLNIDDYIKSLKNKLDSHLHFSIDKIKNSMTTEYGRGTGAYGDFGRYVFGYAVRNWVKGFKSDQDLSNIALMRIFEMGYDAKLHGEFDMWVNRYDNFNNSIERISKKYQWIAYYEILAKLVDKFPDVQYSGLWDDYIRDIDPTLLLLEIDK”, which “soluble on expression in E. coli” value is on record?
A: not soluble

Q: With “MEEMLREIERILEWPRMLKATVISKGFSFDEKYKIELESGASYFIKVCDSSYFERKQEEYEYMQQLDSLHIPMPKLIHFISLTKFNKCVQVFEWIDGLDGEDNLRTLSTQTQYRAGKKAGEVIKKIHLVEKEDKSNSWEMSIWSKYERYLEALKEYEVDFFRLNTVIDFVGNHKDLLKNRPIVFLHDDFHPANIMIDQNEFRAVIDFARFDIGDPIHDFYKVALFTTNISKPFAVGQVHGYCGGEPDLHFWKLYSLYAAMIFPADIVWTNRSTPYLLDDMKERLNGILEDHNDFSSYIPKWYQSSEFNK” as the sequence, how does the “soluble on expression in E. coli” value read?
A: not soluble

Q: With “MEETSMGKLSICRQNVPMKSMPSRLPKIDQAGVARRLEALRDALGLDKGEFAQSFGLDPSSYSKVLQGKKPLKSEYGHAIAEGWGVSMDFIYRGDMSRIDETLRTKVMQNLTAPMR” as the sequence, how does the “soluble on expression in E. coli” value read?
A: not soluble

Q: With “MEEVSSEMEVEVQNRQLSDSSPAQNVKKFGLKNSIQTNFGSDYVFQIVPKIDWTAIAVSLSTNTVKLYSPVTGQYYGECKGHSDTVNQIAFSSDSAASPHVLHSCSSDGTIRSWDTRSFQQVSRIDTGNDQEIFSFSYGGAADNLLAGGCKEQVLLWDWRNSKQVACLEESHMDDVTQVHFVPNKPNKLLSASVDGLICLFNTEGDINDDDHLESVINVGTSIGKIGFLGDGYKKLWCLTHIETLSIWNWEDGSCEVNLEKARELASDSWTQDNVDYFVDCHCPGGEDLWVIGGTCAGTVGYFPVNYKQPGSIGTAEAILGGGHIDVVRSVLQMPGEYGGAAGLFGWTGGEDGRLCCWKSDEDATEINRSWTSSELVVKPPRNRKKNRHSPY” as the sequence, how does the “soluble on expression in E. coli” value read?
A: not soluble

Q: For “MEFEGCSGFRQRLVLSTLSGKPVKIRNIRSKDDNPGLRDFEASFIRMLDKLTNGTRIEINQTGTVLFYQPGLLYGGSVEHECNVQRSVGYYLEALLMLVPFMKTPIKAVLKGITNHPTDPSVDLLKVTAVPLMKRFGINGDGLEIKVVKRGMAPGGGGEVHFSCPVSRSMKPVQLTEAGKIKRIRGTAFSVRVSPQMANRIVDSARSILNKFIPDIYIYTDHMKGPNSGKSPGFGLGLVAETLNGVFLGAEVVSTPQGQGEMQLPEDLGRNCAKLLLEEIYRGGCVDSTNQSLALLYMTLGQQDVSKTLLGPLSPYTMDFLRHIRDFFQIMFKIETQKPSEDECKGGEKVLMTCVGAGYNNISKSIK”, which “soluble on expression in E. coli” value is on record?
A: not soluble

Q: Which “soluble on expression in E. coli” value does the source give for “MEFNLSALGSAPAAEETYDVVIIGGGPAGLTAGIYAGRAQLKTVIVEKGLPGGQIAQTDEVENYPGFPEGISGPELASRMVRQAEKFGARIVMDEVLGLEKAEGGYLVRGYERNYRARAVIVATGANPRRLGVPGEDKFYGRGVSTCATCDGFFYRDKEVVVVGGGDAAVEEGIFLTKFARKVTLVHRRDELRANKVAQKRAFQNPKMHFLFSHVVTEILGEDQVTGVRLKNLKTGEEYVYPTDGVFVFIGHEPNTAFLKGVVELRPDGYIAVRDEVFTSEPGIFAAGDVADPIYRQLTTSVGAGTRAAMMAERYLAEEAEKVKG” here?
A: soluble

Q: Which “soluble on expression in E. coli” value does the source give for “MEFYPIHILLSKLEEEIAFQQKMATTYLVSPPKYSPEVIGTVSETLRRISADLKLVSLILGELEEVQERDIKEEALILSSESLSLISLLLPAIEKYAPFFLESMKVERKPILEKLEDVMAEIENAIEKLELSSSREIIRSLEELAQSLEISLKMGERILERES” here?
A: not soluble

Q: Which “soluble on expression in E. coli” value does the source give for “MEGIMNPYTALPTPQQLLAIEQSVYSSDPFRQGLTPPQMPGDHMHPYGAEPLFHDLDSDDTSLSNLGDCFLATSEAGPLQSRVGNPIDHLYSMQNSYFTS” here?
A: soluble

Q: Which “soluble on expression in E. coli” value does the source give for “MEGLLIDYVQPGSIAEELEIEAGDRLVAINGQDLRDIIDFSFYAHDEELALEIVKPSGDHWEAEIERDGDEPLGLVFAPPVPAQCGNKCVFCFVHQLPKGLRRPLYVKDEDYRLSFLYGNYVTLSNIRRGDLDRIVAQRLSPLYISVHATNPALRERLLGRSEILPILDLMRELAAARIVMHSQIVLCPGLNDGVELEKTVRDLAGLHPWVESLAIVPIGLTKHRRGLPALEPVTASYAETFVQNWQPAAERLERELGAPFLFIADEFYIKAGLPFPPLETYGDLPQIENGVGMIPLFLDESERVLKKARKGKPVTVTVVTGESPYRYLAAFLERLSVRTGATFKPVAVHNRLFGESVTVTGLVAGSDIVEELSGRDLGDAVLVPDVMLKEGEGIFLDDLSVDGLGKSLGTRVLVVEATPQGVVDALRRVRSMLEHHHHHH” here?
A: not soluble

Q: With “MEGRIPPHSLEAEQSVLGAILLDYQVLDEIEGLLPTPEAFYAEAHRKIYAAMQGLRAEGSPVDLVTLAEELSRRGELDGVGGISYLMQLSEATPTAAYAEHYARIVAEKWTLRRLIQAAGEAMRLAYEEAGSLDEILDQAGKRILEVALAQTEVEARSMRELVHETFEHIEALFQNKGETAGVRTGFKELDQLIGTLAPGSLNIIAARPAMGKTAFALTIAQHAALKEGVGVGIYSLEMPAAQLVLRMMCSEARIDMNRVRLGQLSDRDFSRLVDVAGRLSEAPIFIDDTPDLTLMELRARARRLRSQHNVGLIIIDYLQLMSGPGGGQKGENRQQEIAAISRGLKALARELGVPVIALSQLSRAVEARPNKRPMLSDLRESGSIEQDADLVMFIYRDEYYNPHSEKAGIAEIIVGKQRNGPTGTVELQFHAQHVRFNDLAKEP” as the sequence, how does the “soluble on expression in E. coli” value read?
A: soluble

Q: For “MEHKLEDIIAIFNQCFEEEYNTRLVKGGDEPIYLPANDEVPYNAIYFARGFYSSALHEIAHWLVAGKERRKLEDFGYWYEPDGRSEERQRDFEKVEVKPQALEWILATAAGFRYFASADNLNGNPGDTQPFKQAVYEQVKIYAEKGLPKRAETLRKALVAFYSTEDDINLAKFDVTCI”, which “soluble on expression in E. coli” value is on record?
A: not soluble

Q: For “MEHPNLEENVGEQDFASNDRFFNSYNIVPRRILQANYDSSLRQMEGYQEEIETDNPINESRGDEAEELENEGCDDRDRCTSRNSIDSEIYENSDEEVYDESMYESEEEYADSPFIIDKMEECLQNHQIGELGSRVMEGLETGTLADVQLEEFCRSRVKPEVTPREFYEELASSGNGDWKKFSMGQFVLSKMKSSKDTAWANTEATVNSLAANLSKANTVGSIVKRVISREYAIEEKDGFPRYNLTNFYNNTTLQGQGAVAQLTSVYVGFLKNLFKPSFKIWLFTYRPSSAYNFDKHFVEYPASVIDTIFGRKLDAFSMEVLGVYLPEDLLVGGCYNVSDASETFLQSLGENASKEVERRRKFRGPARKTCIGAMAAAMKSLRQHHYNAARDTVSYCSARSDCKEHLTWHQLRFYRAHSGKTKEECDLARPDDVMAFCRERAMPRYSLSPNRDATS”, which “soluble on expression in E. coli” value is on record?
A: soluble

Q: For “MEHQTTRNVILITEGSLQSSLLKDVLETKLGINVLLITPENLASPFVRNQSISAIVLDYSVITDEVFARYMEFKTPNLTGTLEILINCDKSISTDELFVWGALAGIFYTSDDIQTLQTGIDKVLQGDMWFSRKFAQQYITHLRRHSRPINKNVPA”, which “soluble on expression in E. coli” value is on record?
A: not soluble
